Laboratory results published in patent US20250326842A1 (BEIGENE SWITZERLAND, published 2025).
Numbering of substitutions follows the chain as printed. Read-outs that look alike come from different tables or passages of the source.

Tests used:
hPVRIG-ECD-his [1] = target: T1, hPVRIG-ECD-his (human, UniProt Q6DKI7 41-171); test: blocking ELISA: hPVRIG-His coated, antibody mixed with PVRL2-biotin at 1 ug/mL; % inhibition of PVRL2 binding [panel A]
T1 construct: Acrobiosystems PVG-H52H4; also called hPVRIG-His; human PVRIG-His; not shown: His tag
T1 sequence: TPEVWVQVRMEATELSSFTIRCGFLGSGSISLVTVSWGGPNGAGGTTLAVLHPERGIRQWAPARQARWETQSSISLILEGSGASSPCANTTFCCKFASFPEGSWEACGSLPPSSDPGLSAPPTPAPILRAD

[2] = target: T2, human PVRIG recombinant protein (human, UniProt Q6DKI7 41-171); test: SPR, antibody captured via anti-human Fc, human PVRIG analyte
T2 construct: also called human PVRIG protein; recombinant human antigen PVRIG
T2 sequence: T1 sequence
Text: For affinity determination, anti-PVRIG antibodies were captured by anti-human Fc antibodies, and used in the affinity assay based on surface plasmon resonance (SPR) technology.

[3] = target: T3, human PVRIG expressed on cells (human, UniProt Q6DKI7 41-326); test: flow cytometry on Jurkat cells expressing human PVRIG, anti-hFc-AF647 detection [panel A]
T3 construct: Jurkat cells engineered to express human PVRIG; also called hPVRIG-Jurkat; native human PVRIG
T3 sequence: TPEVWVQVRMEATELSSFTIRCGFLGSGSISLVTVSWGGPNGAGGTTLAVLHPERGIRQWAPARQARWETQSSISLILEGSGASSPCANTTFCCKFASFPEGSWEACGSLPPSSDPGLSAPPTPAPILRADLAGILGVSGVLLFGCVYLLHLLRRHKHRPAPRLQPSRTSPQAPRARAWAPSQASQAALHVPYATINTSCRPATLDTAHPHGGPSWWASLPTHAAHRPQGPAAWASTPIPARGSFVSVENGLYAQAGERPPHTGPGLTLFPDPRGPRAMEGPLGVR
Protocol: (§1) To evaluate the binding activity of anti-PVRIG antibodies to native PVRIG on living cells, Jurkat cells were engineered to express human PVRIG. Jurkat cells expressing PVRIG were seeded in 96 well plates and were incubated with serially diluted anti-PVRIG antibodies. […] EC50 values for dose dependent binding to human native PVRIG were determined by fitting the dose response data to the four-parameter logistic model with GraphPad Prism™.

[4] = target: T4, Cyno PVRIG expressed on HEK293 cells (cynomolgus monkey); test: flow cytometry on 293T cells expressing cyno PVRIG, anti-hFc-AF647 detection [panel A]
T4 construct: also called native Cyno PVRIG
T4 chain: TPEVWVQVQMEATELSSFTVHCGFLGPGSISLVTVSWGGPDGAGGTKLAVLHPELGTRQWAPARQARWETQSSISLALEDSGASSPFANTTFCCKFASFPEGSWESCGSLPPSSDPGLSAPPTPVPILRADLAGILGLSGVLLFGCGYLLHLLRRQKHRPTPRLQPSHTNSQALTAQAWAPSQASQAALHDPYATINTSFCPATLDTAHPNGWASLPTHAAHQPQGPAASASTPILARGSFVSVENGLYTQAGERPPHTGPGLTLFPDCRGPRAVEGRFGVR
Protocol: (§2) To evaluate the binding activity of anti-PVRIG antibodies to native Cyno PVRIG on living cells. HEK293 cells were engineered to express Cyno PVRIG. HEK293 cells transfected with Cyno PVRIG were seeded in 96 well plates and were incubated with a serial dilution of anti-PVRIG antibodies. […] EC50 values for dose dependent binding to Cyno native PVRIG were determined by fitting the dose response data to the four-parameter logistic model with GraphPad Prism™.

[5] = target: T4, Cyno PVRIG expressed on HEK293 cells; test: flow cytometry on HEK293 cells expressing cyno PVRIG, anti-hFc-647 detection [panel B]
Protocol: as §2

[6] = target: T3, human PVRIG expressed on cells; test: flow cytometry on Jurkat cells expressing human PVRIG, anti-hFc-647 detection [panel B]
Protocol: as §1

[7] = target: T3, human PVRIG expressed on cells; test: flow cytometry on Jurkat cells expressing human PVRIG, anti-hFc-AF647 detection
Protocol: as §1, with “expressing human” for “expressing”, “plates,” for “plates”

hPVRIG-ECD-his [8] = target: T1, hPVRIG-ECD-his; test: blocking ELISA: hPVRIG-His coated, antibody mixed with PVRL2-biotin at 1 ug/mL; % inhibition of PVRL2 binding
[9] = target: T2, human PVRIG recombinant protein; test: SPR, antibody captured via anti-human Fc, human PVRIG analyte; remark: listed apart in the source
Text: For affinity determination, antibodies were captured by anti-human Fe antibodies, and used in the affinity assay based on surface plasmon resonance (SPR) technology. […] Rmax represents the maximal feasible SPR signal generated by an interaction between a ligand-analyte pair and is represented in response units (RU).

[10] = target: T2, human PVRIG recombinant protein; test: ELISA, chimeric antibody on recombinant human PVRIG
hPVRIG-ECD-his [11] = target: T1, hPVRIG-ECD-his; test: competition ELISA, antibody against PVRL2 on coated human PVRIG
[12] = target: T2, human PVRIG recombinant protein; test: SPR, antibody captured via anti-human Fc, human PVRIG analyte; remark: listed apart in the source
Text: For affinity determination, antibodies were captured by anti-human Fc antibodies, and used in the affinity determination based on surface plasmon resonance (SPR) technology.

hPVRIG-ECD-his [13] = target: T1, hPVRIG-ECD-his; test: blocking ELISA: hPVRIG-His coated, antibody mixed with PVRL2-biotin at 1 ug/mL; % inhibition of PVRL2 binding; remark: listed apart in the source
[14] = target: T4, Cyno PVRIG expressed on HEK293 cells; test: flow cytometry on 293T cells expressing cyno PVRIG, anti-hFc-AF647 detection
[15] = target: T3, human PVRIG expressed on cells; test: flow cytometry on Jurkat cells expressing human PVRIG, anti-hFc-AF647 detection; remark: listed apart in the source
Protocol: as §1, with “to native human PVRIG on” for “to native PVRIG on”, “cells expressing human PVRIG were” for “cells expressing PVRIG were”, “96 well plates, and were” for “96 well plates and were”

[16] = target: T3, human PVRIG expressed on cells; test: FACS on human PVRIG-expressing cells
[17] = target: T2, human PVRIG recombinant protein; test: SPR, antibody captured via anti-human Fc, human PVRIG analyte; remark: listed apart in the source
Protocol: Chimeric anti-PVRIG antibodies were generated in human IgG1 format and characterized for binding kinetics by surface plasmon resonance (SPR) assays using BIAcore™ T-200 (GE Life Sciences). […] Then a serial dilution of human or Cyno PVRIG protein was flowed over the chip surface and changes in surface plasmon resonance signals were analyzed to calculate the association rates (kₒₙ) and dissociation rates (koff) by using the one-to-one Langmuir binding model (BIA Evaluation Software, GE Life Sciences). The equilibrium dissociation constant (KD) was calculated as the ratio koff/kₒₙ.

B1: BGA382 (antibody, V domains shown)
VH: EVQLVQSGAEVKKPGASVKVSCKASGYTFTDYWIYWVRQAPGQGLEWMGTIDTSDHKTSYNQKFRGRVTMTRDTSTSTVYMELSSLRSEDTAVYYCARDFIITVNYPVVDYWGQGTLVTVSS
VL: QNVLTQSPATLSLSPGERATLSCSAGSSVNYLHWFQQKPGQAPRLLIYSTSNLASGVPARFSGSGSGTDYTLTISSLEPEDFAVYYCQQRSSLPFTFGQGTKLEIK
notes: Humanized BGA38
With B1 the “IC50 (read off the curve)” value (hPVRIG-ECD-his [1]) was about 0.4 µg/mL, the Kd [2] was 0.0646 nM and the koff [2] was 0.000211 s⁻¹. The kon [2] was 3.26e+06 M⁻¹ s⁻¹, the “EC50 (read off the curve)” value [3] was about 0.03 µg/mL and the “EC50 (read off the curve)” value [4] was about 0.03 µg/mL.

B2: BGA383 (antibody, V domains shown)
VH: B1 VH with H56A
VL: B1 VL with N2I, L32M
notes: Humanized BGA38
A Kd [2] of 0.0998 nM, a koff [2] of 0.000649 s⁻¹ and a kon [2] of 6.51e+06 M⁻¹ s⁻¹ were found for B2 in this work. For the same binder, the “EC50 (read off the curve)” value [5] was about 0.04 µg/mL and the “EC50 (read off the curve)” value [6] was about 0.03 µg/mL.

B3: BGA121 (antibody, V domains shown)
VH: QVQLVQSGAEVKKPGASVKVSCKASGYTFTDYAMHWVRQAPGQSLEWMGVVLTHNDNTNYNQKFKARVTMTVDTSASTAYMELSSLRSEDTAVYYCAREVYYDFDDGNYFPMDYWGQGTLVTVSS
VL: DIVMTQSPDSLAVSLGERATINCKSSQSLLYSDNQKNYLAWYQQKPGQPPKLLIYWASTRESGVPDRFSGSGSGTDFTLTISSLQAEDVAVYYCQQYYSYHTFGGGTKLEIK
notes: Humanized BGA12
For B3, the “EC50 (read off the curve)” value [7] was about 0.007 µg/mL, the “IC50 (read off the curve)” value (hPVRIG-ECD-his [8]) was about 0.6 µg/mL and the Kd [9] was 0.0524 nM. The koff [9] was 0.00122 s⁻¹ and the kon [9] was 2.33e+07 M⁻¹ s⁻¹.

B4: BGA122 (antibody, V domains shown)
VH: B3 VH
VL: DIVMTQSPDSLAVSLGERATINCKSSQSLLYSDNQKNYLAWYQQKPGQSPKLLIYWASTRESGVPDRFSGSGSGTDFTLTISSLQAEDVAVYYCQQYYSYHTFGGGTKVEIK
notes: Humanized BGA12; also called BGA122-WT
B4 was tested, and the “EC50 (read off the curve)” value [7] was about 0.007 µg/mL, the “IC50 (read off the curve)” value (hPVRIG-ECD-his [8]) was about 0.6 µg/mL and the Kd [9] was 0.0488 nM. It also gave a koff [9] of 0.00199 s⁻¹ and a kon [9] of 4.09e+07 M⁻¹ s⁻¹.

B5: BGA50 (antibody, V domains shown)
VH: EVQLQQSGPEPVKPGASVKISCKASGYSFTGYFLNWVKQSHGKSLEWIGRISPYNGDTFYNQKFKGKATLTVDKSSSTAHMELLSLTSEDSAVYYCGRSGSFTLFYAMDYWGQGTSVTVSS
VL: DIVMSQSPSSLAVSVGENITMTCKSSQSLFHSGNQKNYLAWYQQKPGQSPKLLIYWASTRESGVPDRFTGSGSETDFTLTISSVKAEDLAVYFCQQYYSYPITFGAGTKLELK
notes: also called BGA50-WT
B5 was tested, and the EC50 [10] was 0.105 nM, the IC50 (hPVRIG-ECD-his [11]) was 1.09 nM and the “PVRIG/PVRL2 blocking Emax (% Inhibition)” value (hPVRIG-ECD-his [11]) was 95.3%. It also gave a Kd [12] of 0.0907 nM, a koff [12] of 0.000519 s⁻¹ and a kon [12] of 5.72e+06 M⁻¹ s⁻¹. The “IC50 (read off the curve)” value (hPVRIG-ECD-his [13]) was about 1 µg/mL, the “EC50 (read off the curve)” value [14] was about 0.02 µg/mL and the “EC50 (read off the curve)” value [15] was about 0.03 µg/mL. For the same binder, the EC50 [16] was 0.273 nM, the “binding Emax (MFI)” value [16] was 2610 MFI and the Kd [17] was 0.147 nM. The koff [17] was 0.000652 s⁻¹ and the kon [17] was 4.45e+06 M⁻¹ s⁻¹.

B6: BGA502 (antibody, V domains shown)
VH: QVQLVQSGAEVKKPGASVKVSCKASGYSFTGYFLNWVRQAPGQGLEWIGRISPYQGDTFYNQKFKGRVTMTTDKSTSTAYMELRSLRSDDTAVYYCGRSGSFTLFYALDYWGQGTLVTVSS
VL: DIVMTQSPSSLAVSLGERATINCKSSQSLFHSGNQKNYLAWYQQKPGQSPKLLIYWASTRESGVPDRFSGSGSGTDFTLTISSLQAEDVAVYYCQQYYSYPITFGQGTKLEIK
notes: Humanized BGA50
A Kd [12] of 0.103 nM, a koff [12] of 0.000486 s⁻¹ and a kon [12] of 4.71e+06 M⁻¹ s⁻¹ were found for B6 in this work. For the same binder, the “IC50 (read off the curve)” value (hPVRIG-ECD-his [13]) was about 1 µg/mL, the “EC50 (read off the curve)” value [14] was about 0.007 µg/mL and the “EC50 (read off the curve)” value [15] was about 0.01 µg/mL.

B7: BGA503 (antibody, V domains shown)
VH: B6 VH with T72V
VL: B6 VL
notes: Humanized BGA50
A Kd [12] of 0.12 nM, a koff [12] of 0.000438 s⁻¹ and a kon [12] of 3.66e+06 M⁻¹ s⁻¹ were found for B7 in this work. The “IC50 (read off the curve)” value (hPVRIG-ECD-his [13]) was about 0.8 µg/mL, the “EC50 (read off the curve)” value [14] was about 0.007 µg/mL and the “EC50 (read off the curve)” value [15] was about 0.01 µg/mL.

B8: BGA501 (antibody, V domains shown)
VH: B6 VH with L108I
VL: B6 VL
notes: Humanized BGA50; also called BGA501-WT
A Kd [12] of 0.136 nM, a koff [12] of 0.000436 s⁻¹ and a kon [12] of 3.21e+06 M⁻¹ s⁻¹ were found for B8 in this work. The “IC50 (read off the curve)” value (hPVRIG-ECD-his [13]) was about 1 µg/mL, the “EC50 (read off the curve)” value [14] was about 0.01 µg/mL and the “EC50 (read off the curve)” value [15] was about 0.01 µg/mL.

B9: BGA12 (antibody, V domains shown)
VH: QVQLQQSGPEVVRPGVSVKISCKGSGYTFTDYAMHWVKQSHGKSLEWIGVVLTHNDNTNYNQKFKAKATMTVDRSSSTAYMELARLTSEDSAIYYCAREVYYDFDDGNYFPMDYWGQGTSVTVSS
VL: DIVMSQSPSSLAVSVGEKVTMSCKSSQSLLYSDNQKNYLAWYQQKPGQSPKLLIYWASTRESGVPVRFTGSGSGTDFTLTISSVKAEDLAVYYCQQYYSYHTFGGGTKLEIK
B9 was tested, and the EC50 [10] was 0.126 nM, the IC50 (hPVRIG-ECD-his [11]) was 0.15 nM and the “PVRIG/PVRL2 blocking Emax (% Inhibition)” value (hPVRIG-ECD-his [11]) was 91.9%. The EC50 [16] was 0.05 nM, the “binding Emax (MFI)” value [16] was 1180 MFI and the “EC50 (read off the curve)” value [7] was about 0.007 µg/mL. The “IC50 (read off the curve)” value (hPVRIG-ECD-his [8]) was about 0.6 µg/mL, the Kd [9] was 0.0684 nM and the koff [9] was 0.00157 s⁻¹. It also gave a kon [9] of 2.29e+07 M⁻¹ s⁻¹, a Kd [17] of 0.0684 nM and a koff [17] of 0.00157 s⁻¹. For the same binder, the kon [17] was 2.29e+07 M⁻¹ s⁻¹.
